This is an account of results in patent US20080166345A1, “MEDICAMENTS COMPRISING GENE RECOMBINANT ANTIBODY AGAINST GANGLIOSIDE GD3” (KYOWA HAKKO KOGYO CO., LTD., priority 2001, published 2008).

The data set in a line: GD3 binding ELISA of transient expression (COS-7) culture supernatants. To be noted: COS-7 culture supernatant; FIG. 14, FIG. 17. As to the method: Each ganglioside (2 nmol) was dissolved in […] of ethanol solution containing 10 μg of dipalmitoylphosphatidylcholine (manufactured by SIGMA) and 5 μg of cholesterol (manufactured by SIGMA). In each well of a 96 well plate for ELISA (manufactured by Greiner), 20 μl of the solution (becomes 20 pmol/well) or 20 μl of the solution diluted with ethanol was respectively dispensed, followed by air-drying, and then PBS containing 1% BSA (hereinafter referred to as “1% BSA-PBS”) was added in 100 μl/well and allowed to react at room temperature for 1 hour to thereby block remaining active groups. After discarding 1% BSA-PBS, culture supernatants of transformants or diluted solutions of humanized antibodies were added in 50 μl/well and allowed to react at room temperature for 1 hour. […] After the reaction and subsequent washing with Tween-PBS, an ABTS substrate solution (a solution prepared by dissolving 0.55 g of 2,2′-azinobis(3-ethylbenzothiazoline-6-sulfonic acid) in 1 L of 0.1 M citrate buffer (pH 4.2) and adding 1 μl/ml hydrogen peroxide just before the use) was added in 50 μl/well for color development and the absorbance at 415 nm (hereinafter referred to as “OD415”) was measured. […]

B1: pT641HLCDR: anti-GD3 CDR-grafted antibody by transient expression; VH hKM641H (SEQ ID NO:9), VL hKM641L (SEQ ID NO:10) (antibody, V domains shown)
VH: EVQLVESGGDFVQPGGSLRVSCAASGFAFSHYAMSWVRQAPGKGLEWVAYISSGGSGTYYSDSVKGRFTISRDNSKNTLYLQMRSLRAEDSAVYFCTRVKLGTYYFDSWGQGTLLTVSS
VL: DIQMTQSPSSLSASVGDRVTITCSASQDISNYLNWYQQKPDKAPKLLIFYSSNLHSGVPSRFSGGGSGTDYTLTISSLQPEDIATYFCHQYSKLPWTFGQGTKVEIKR
As for B1, the “relative activity (%) of binding to GD3 when the activity of anti-GD3 chimeric antibody is defined as 100” value is given as “about 5%”.
